Here are results for seven molecules from US20170037148A1 (INSERM INSTITUT NATIONAL DE LA SANT ET DE LA RECHERCHE M …, published 2017).

What is called Kd is a measure of binding affinity in units of concentration. Low readings indicate tighter binding, high ones weaker binding. In general, IC50 refers to the midpoint of a concentration-inhibition curve.

“And” between values parts separate entries of the source, which are not always exact repeats. Equal values may be shown once. Where only a bound is given, the exact number is not on record here.

Data set [1] concerns the target recombinant wild-type ADAMTS13 containing a V5- and a His-tag (wt-rADAMTS13) (human) (UniProt Q76LX8). Put plainly: competition immuno-sorbent assay, fragment 10 nM pre-incubated with wt-rADAMTS13, immobilized pd-VWF.
Data set [2] has the same target. Put plainly: cell-based or functional assay.
Data set [3] deals with purified plasma-derived von Willebrand factor (pd-VWF), P04275.
Data set [4] concerns the target T1, purified plasma-derived von Willebrand factor (pd-VWF) (human, UniProt P04275 764-2813).
T1 construct: mature; Multimeric plasma protein; also called full-length VWF; globular full-length VWF
Put plainly: BLI (Octet-QK), equilibrium responses, mAb508 on protein A biosensors, pd-VWF in solution, single class of binding sites. In general terms: In BLI a coated tip is dipped into the sample, and binding shifts an interference pattern.
Method: Subsequently, biosensors were incubated with various concentrations purified pd-VWF (0-0.2 mg/ml) and association of VWF was monitored real-time for a 10-min period until equilibrium was reached. Data represent mean±SD of four independent associations and depicted are the calculated responses (shift in nm) at equilibrium versus VWF concentration. The drawn line represents the best fit using a model describing the interaction of a single class of binding sites.
Biolayer interferometry-analysis: Equilibrium binding assays were performed via biolayer interferometry (BLI)-analysis using Octet-QK equipment (ForteBio, Reading, UK) essentially as described (26). […] Biosensors were then incubated for 5 min in BLI-buffer to achieve stable baseline, and subsequently incubated with various concentrations of pd-VWF in BLI-buffer for 10 min. All incubations were performed at room temperature under continuous shaking (1000 rpm). Data were analyzed using Octet Software version 4.0.

Data set [5] deals with T1, purified plasma-derived von Willebrand …. Put plainly: competitive immuno-sorbent assay, mAb508 0 to 50 µg/ml against ADAMTS13 (4 µg/ml) on coated VWF (2 µg/ml).

Consider “A1-Fc (from UniProt P04275 1261-1478) (Fc fusion)”, for which the inhibition of ADAMTS13 binding to immobilized VWF in data set [1] is below 20%.

“A2-Fc (from UniProt P04275 1480-1672) (Fc fusion)”: in data set [2], the residual proteolysis of VWF by ADAMTS13, vortex-based degradation assay, A2-Fc 1 µg/ml amounted to 96%. In addition, the inhibition of ADAMTS13 binding to immobilized VWF in data set [1] was 65%.

Take “A3-Fc (from UniProt P04275 1681-1878) (Fc fusion)”: the inhibition of ADAMTS13 binding to immobilized VWF in data set [1] is below 20%.

As to “D4-Fc (from UniProt P04275 1947-2301) (Fc fusion)”, the inhibition of ADAMTS13 binding to immobilized VWF in data set [1] was below 20%.

Regarding “D′D3-HPC4 (from UniProt P04275 764-1247)”, the inhibition of ADAMTS13 binding to immobilized VWF in data set [1] was below 20%.

B1: recombinant wild-type ADAMTS13 containing a V5- and a His-tag (wt-rADAMTS13) (protein)
chain: AAGGILHLELLVAVGPDVFQAHQEDTERYVLTNLNIGAELLRDPSLGAQFRVHLVKMVILTEPEGAPNITANLTSSLLSVCGWSQTINPEDDTDPGHADLVLYITRFDLELPDGNRQVRGVTQLGGACSPTWSCLITEDTGFDLGVTIAHEIGHSFGLEHDGAPGSGCGPSGHVMASDGAAPRAGLAWSPCSRRQLLSLLSAGRARCVWDPPRPQPGSAGHPPDAQPGLYYSANEQCRVAFGPKAVACTFAREHLDMCQALSCHTDPLDQSSCSRLLVPLLDGTECGVEKWCSKGRCRSLVELTPIAAVHGRWSSWGPRSPCSRSCGGGVVTRRRQCNNPRPAFGGRACVGADLQAEMCNTQACEKTQLEFMSQQCARTDGQPLRSSPGGASFYHWGAAVPHSQGDALCRHMCRAIGESFIMKRGDSFLDGTRCMPSGPREDGTLSLCVSGSCRTFGCDGRMDSQQVWDRCQVCGGDNSTCSPRKGSFTAGRAREYVTFLTVTPNLTSVYIANHRPLFTHLAVRIGGRYVVAGKMSISPNTTYPSLLEDGRVEYRVALTEDRLPRLEEIRIWGPLQEDADIQVYRRYGEEYGNLTRPDITFTYFQPKPRQAWVWAAVRGPCSVSCGAGLRWVNYSCLDQARKELVETVQCQGSQQPPAWPEACVLEPCPPYWAVGDFGPCSASCGGGLRERPVRCVEAQGSLLKTLPPARCRAGAQQPAVALETCNPQPCPARWEVSEPSSCTSAGGAGLALENETCVPGADGLEAPVTEGPGSVDEKLPAPEPCVGMSCPPGWGHLDATSAGEKAPSPWGSIRTGAQAAHVWTPAAGSCSVSCGRGLMELRFLCMDSALRVPVQEELCGLASKPGSRREVCQAVPCPARWQYKLAACSVSCGRGVVRRILYCARAHGEDDGEEILLDTQCQGLPRPEPQEACSLEPCPPRWKVMSLGPCSASCGLGTARRSVACVQLDQGQDVEVDEAACAALVRPEASVPCLIADCTYRWHVGTWMECSVSCGDGIQRRRDTCLGPQAQAPVPADFCQHLPKPVTVRGCWAGPCVGQGTPSLVPHEEAAAPGRTTATPAGASLEWSQARGLLFSPAPQPRRLLPGPQENSVQSSACGRQHLEPTGTIDMRGPGQADCAVAIGRPLGEVVTLRVLESSLNCSAGDMLLLWGRLTWRKMCRKLLDMTFSSKTNTLVVRQRCGRPGGGVLLRYGSQLAPETFYRECDMQLFGPWGEIVSPSLSPATSNAGGCRLFINVAPHARIAIHALATNMGAGTEGANASYILIRDTHSLRTTAFHGQQVLYWESESSQAEMEFSEGFLKAQASLRGQYWTLQSWVPEMQDPQSWKGKEGT
Regarding B1, in data set [3], the “proteolytic cleavage of pd-VWF (30 µg/ml) by recombinant ADAMTS13 (3 µg/ml), vortex-based degradation assay” value was “proteolytic cleavage of pd-VWF (30 µg/ml) by recombinant ADAMTS13 (3 µg/ml) increases as a function of incubation time, with maximal degradation obtained after 30 min”.

B2: anti-human von Willebrand factor monoclonal antibody 508 (mAb508) (antibody, mouse IgG1, kappa, V domains shown)
VH: DVQLQESGPDLVEPSQSLSLSCTVTGYSITSGYSWHWIRQFPGNKLEWLGYIHYSGTTTYNPSLHSRVSITRDTSKNQFFLQLNSVSTEDTATYFCGREGYHWGQGTTLTVSS
VL: DVVMTQTPLSLPVSLGDQASISCRSSQSLVHSIGNTYLHWYLQKPGQSPKLLIYKVSNRFSGVPDRFSGSGSGTDFTLKISRVEAEDLGVYFCSQTTHVPLTFGGGTRLEIKR
notes: Murine monoclonal antibody purified from hybridoma; also called antibody mAb508
B2: the dissociation constant Kd in data set [4] was 13 µg/mL and 52 nM. In addition, the IC50 in data set [5] turned out to be 0.09 µg/mL.
